Measurements reported in publication PMC8416954.

How the values were obtained:
[1] = target: ectodomain of human syndecan-4 (natural isoform 2 of SDC-4) (human); assay: SEC-MALS
[2] = target: ectodomain of human syndecan-4 (natural isoform 2 of SDC-4) (human); assay: ion mobility mass spectrometry

For “ectodomain of human syndecan-4 (natural isoform 2 of SDC-4) (domain or fragment)”, the stoichiometry N [1] was 2 and the stoichiometry N [2] was 2.
